# Experiments:
# [1] = target: DDM mutant (double point and deletion mutant) of Eg (mouse; human) (UniProt P14753); assay: co-immunoprecipitation with anti-Hck, anti-His blot, Cos-7 lysates (FIG. 6)
# [2] = target: deletion mutant Δ771-827 of Eg (mouse; human) (UniProt P14753); assay: as above
# [3] = target: deletion mutant Δ771-827 of Eg (mouse; human) (UniProt P14753); assay: co-immunoprecipitation with anti-Hck, anti-His blot, Cos-7 lysates (FIG. 5A)
# [4] = target: deletion mutant Δ771-827 of Eg (mouse; human) (UniProt P14753); assay: co-immunoprecipitation with anti-Hck, anti-His blot, Cos-7 lysates (FIG. 5B)
# [5] = test system: IL-6 dependent murine cell line 7TD-1; assay: IL-6 induced cell proliferation of 7TD-1 cells incubated with peptides, microscopic cell counting; type: cell-based; details: 7TD-1 stimulated with 40 pg IL-6, 100 μM peptide, 4 days, compared with untreated or unstimulated cells
# Experimental: Subfragments of the previously described 41 amino acid Hck binding domain of gp130 were used to narrow down the essential parts of this domain. The subfragments, which are shown in FIG. 12, were synthesized by solid phase synthesis, N-terminally coupled to myristate in order to render them membrane soluble, and diluted in DMSO. A MM-cell line was incubated with the different peptides and cell proliferation was measured.
# To determine the effects of the different peptides on IL-6 induced cell proliferation, the IL-6 dependent murine cell line 7TD-1 was stimulated with 40 pg of IL-6 and incubated with 100 μM of the different peptides. After 4 days, the cell proliferation was determined by microscopic cell counting.
Substance,reduction of Hck binding to gp130 [1],reduction of Hck binding to gp130 [2],decrease of Hck co-precipitation with gp130 [3],loss of gp130 co-precipitation with Hck [4],cell proliferation [5]
"Hck tyrosine kinase (wild type Hck, expressed from pcDNA3-Hck or pDpuro-Hck) (from UniProt P08631 2-526) (enzyme)",> 90%,> 90%,> 90%,90%,–
LLDSEERPEDLQLVD [compound 6],–,–,–,–,down regulation of cell proliferation to the basal level
TQPLLDSEERPEDLQLVD [compound 2],–,–,–,–,down regulation of cell proliferation to the basal level

# From patent publication US7078478B2, “Inhibition of the proliferation of cells of the multiple myeloma” (GSF-Forschungszentrum für Umwelt Gesundheit, GmbH, priority 1999, dated 2006)
